Reference: the supplement of paper PMC9732359
± gives the uncertainty stated by the source.

Assay: protein stability index of a GFP-peptide fusion (yeast GPS) (PSI 1-4); higher = more stable; sorted into four equal gates, so the index is relative within each strain
How it was run: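 Mid-log yeast cultures in leucine-free medium, carrying a pooled plasmid library, were sorted into four equal gates by their GFP/Cherry fluorescence ratio. Each plasmid expressed Cherry along with GFP fused upstream of a tiled 17-residue yeast protein peptide. Plasmids recovered from each gate were PCR-amplified and Illumina-sequenced, with reads assigned to strains by barcodes. The protein stability index was obtained by summing each gate's read frequency weighted by its gate number.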

Sequence	protein stability index (doa10∆)	protein stability index (pdr5∆)	protein stability index (san1∆)	protein stability index (ubr1∆)
TTIQTEKVRPTPGEVAS [MCD1]	2.74 ± 0.043	2.44 ± 0.041	2.8 ± 0.04	2.84 ± 0.034
RGFGKINKQRVPLSDNA [RPL7A]	3.03 ± 0.091	3.5 ± 0.11	3.29 ± 0.094	2.91 ± 0.066
GEKNSDDYSNEDNEMLE [YJR042W/NUP85]	–	–	2.06 ± 0.29	1.89 ± 0.14
GALPPDLSLIVKARHGG [CYT1]	1.83 ± 0.23	1.97 ± 0.14	–	2.23 ± 0.17
WSHNGPFETFDHASIRR [CYT1]	2.79 ± 0.06	3 ± 0.062	2.79 ± 0.051	2.96 ± 0.043
GPVVAGINSKSGKPFIA [PUP3]	3.18 ± 0.13	3.27 ± 0.11	2.99 ± 0.18	3.05 ± 0.11
ICNTLNIAKDLKWKKGI [SMC1]	1.43 ± 0.1	1.26 ± 0.14	1.45 ± 0.17	2.69 ± 0.24
NWYKSKKKAFTKYSAKY [RPL3]	3.23 ± 0.16	3.25 ± 0.1	3.07 ± 0.079	3.01 ± 0.045
LNSLTNLLSKRNQEKKM [SNM1]	2.89 ± 0.078	2.86 ± 0.074	2.69 ± 0.083	2.7 ± 0.063
ANLGKYGILSIDDLIHE [RPL7A]	1.78 ± 0.092	1.98 ± 0.094	1.54 ± 0.17	1.15 ± 0.086
KKLVWPLHLIFAQPVAD [SSN2]	1.88 ± 0.075	1.39 ± 0.073	1.26 ± 0.11	1.17 ± 0.062
HNQSPRNTYQSAMGKQA [RPB2]	2.48 ± 0.063	2.77 ± 0.062	2.37 ± 0.06	2.25 ± 0.039
TSIRLEGDELENKTKKD [SRB4]	–	3.78 ± 0.26	–	–
PVGACATSVESVDIGVE [FAS2]	2.92 ± 0.13	2.9 ± 0.11	2.12 ± 0.085	2.86 ± 0.089
TLASLIRYNSVEIQEVP [RPC82]	2.62 ± 0.073	2.59 ± 0.051	2.48 ± 0.12	2.54 ± 0.077
MAPNTSRKQKIAKTFTV [RPL22A]	2.15 ± 0.17	2.03 ± 0.089	2.61 ± 0.13	2.03 ± 0.092
PEEEAAIRRENEWAEDR [SKP1]	3.09 ± 0.1	3.15 ± 0.082	3.34 ± 0.05	3.28 ± 0.1
EMKTQAAELQEKPLTPL [SNF6]	2.97 ± 0.19	3.14 ± 0.12	2.8 ± 0.088	2.89 ± 0.087
KSKEDMKQLKFFKPLDY [SNU114]	3.32 ± 0.14	3.08 ± 0.098	3.05 ± 0.16	3.29 ± 0.087
KNDNIKKSVNKLDKQIN [POP6]	2.78 ± 0.049	2.87 ± 0.059	2.73 ± 0.059	2.78 ± 0.046
NSDDIIDVDMDASPAPS [SRB5]	2.71 ± 0.051	2.89 ± 0.061	2.78 ± 0.056	3 ± 0.072
SPVQIAFNRFMAESLVD [SSN8]	1.52 ± 0.043	1.97 ± 0.045	1.63 ± 0.11	1.52 ± 0.044
FQDYLTQQAVNLEKNYL [IRR1]	2.15 ± 0.11	2.12 ± 0.11	2.02 ± 0.16	1.96 ± 0.11
AHSLSPKDYIKKLLEVH [CDC53]	1.7 ± 0.042	2.23 ± 0.064	2.56 ± 0.056	1.77 ± 0.042
PVKVSGTIKKIEQFAMR [POP5]	2.54 ± 0.089	2.65 ± 0.058	2.34 ± 0.082	2.56 ± 0.042
REKRAREKAEAEAEKKK [RPL13A]	–	3.62 ± 0.13	3.31 ± 0.061	–

Sequence	protein stability index (doa10∆)	protein stability index (pdr5∆)	protein stability index (san1∆)	protein stability index (ubr1∆)
WKTAEEVSALVRSLPKE [PRP8]	1.21 ± 0.068	1.36 ± 0.079	1.28 ± 0.12	1.08 ± 0.051
ELVTISWVQPRIISGDQ [RPN9]	2.44 ± 0.12	1.96 ± 0.087	2.27 ± 0.12	2.98 ± 0.1
AFVKDMQVYLVPIERVA [RPC37]	1.18 ± 0.13	1.39 ± 0.27	1.39 ± 0.19	1.27 ± 0.21
ENPTDNFIIWINSIDTT [GRR1]	2.44 ± 0.045	2.51 ± 0.053	2.61 ± 0.049	2.74 ± 0.048
NVFTPEISSQIEILVKD [RRI2]	1.65 ± 0.1	2.02 ± 0.12	2.65 ± 0.15	1.3 ± 0.066
VLGNSRGVDAGKGNTFE [RPN14]	2.73 ± 0.25	3.01 ± 0.17	3.66 ± 0.11	3.3 ± 0.12
LIKAKNFLVFQGDVEQI [SMC1]	2.63 ± 0.19	3.15 ± 0.12	2.41 ± 0.17	2.76 ± 0.23
TNILISPLNTTTKILGD [YML103C/NUP188]	2.15 ± 0.058	2.42 ± 0.05	2.04 ± 0.086	1.51 ± 0.033
SQTPSFNTNSSFTPSTV [YOR098C/NUP1]	2.4 ± 0.033	2.671 ± 0.025	2.52 ± 0.033	2.898 ± 0.026
FQLLEPLSTYNKNGNAV [PGD1]	2.81 ± 0.058	2.93 ± 0.057	2.77 ± 0.05	2.74 ± 0.036
RAPKANGALDPKMGVSS [RPO31]	3.12 ± 0.23	3.11 ± 0.16	3.05 ± 0.093	3.04 ± 0.08
MVLEATVLVIDNSEYSR [RPN10]	1.79 ± 0.097	1.72 ± 0.12	1.85 ± 0.12	2.2 ± 0.046
NNIEENLRLLNSIDSTS [ECM29]	3.21 ± 0.06	3.33 ± 0.057	3.18 ± 0.044	3.21 ± 0.046
MLNLIDDVKNILNAKYT [RPN6]	2.85 ± 0.18	2.57 ± 0.09	2.86 ± 0.061	2.86 ± 0.068
ILGIHTSKMNLSEDVNL [RPT2]	3.03 ± 0.12	3.16 ± 0.081	3 ± 0.13	3.14 ± 0.067
SRAQILQIHSRKMTTDD [RPT5]	2.72 ± 0.082	2.43 ± 0.055	2.92 ± 0.068	3.08 ± 0.046
THPKDTFYITREKYNMK [ARP9]	2.98 ± 0.12	3.09 ± 0.083	3.07 ± 0.06	3.31 ± 0.064
QYILQIVSFIVNCFHED [YJL039C/NUP192]	1.42 ± 0.061	1.91 ± 0.062	2.18 ± 0.077	2.3 ± 0.057
NSIDINYKGLPKKYKEN [SMC1]	2.91 ± 0.068	3.16 ± 0.08	3.21 ± 0.07	3.36 ± 0.059
PQYQYQRRYVIKEKVQF [ITC1]	1.56 ± 0.069	1.88 ± 0.047	1.79 ± 0.095	1.47 ± 0.03
KGEVYTIPLGGSVHKLP [PRE3]	2.97 ± 0.065	2.95 ± 0.082	2.84 ± 0.088	3.04 ± 0.044
MASYMLNSFAFELCSLG [YJR042W/NUP85]	1.29 ± 0.17	1.51 ± 0.16	–	1.5 ± 0.23
GGRMFAPTKTWRKWNVK [RPL4A]	2.87 ± 0.12	2.88 ± 0.11	3.07 ± 0.065	2.16 ± 0.056
GLELSNFKSYRGVTKVG [SMC1]	3.04 ± 0.094	3.09 ± 0.14	2.55 ± 0.15	2.45 ± 0.12
NEKMQLLKDIFANNLKS [SIR4]	2.28 ± 0.048	2.41 ± 0.051	1.95 ± 0.083	2.19 ± 0.048
